The values below come from the supplement of paper PMC10567573.

± gives the standard deviation.

This series is described as follows: protein stability index of a GFP-peptide fusion (GPS, HEK-293T) (PSI 1-6); higher = more stable. Particulars: c terminus: a fixed tail appended.
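Further: 24-mer peptide tiles fused after GFP, lentivirally expressed, FACS-sorted into six equal bins by GFP/DsRed ratio, decoded by Illumina sequencing, PSI is the read-weighted mean bin number.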

As to LEFDLLIFSFGQLPLALVTWVPMF [SOAT2], the protein stability index by setting is: (treatment: DMSO) 3.17 ± 0.49; (treatment: MLN4924 1 uM, 8 h) 3.02 ± 0.33.
In the case of LFAGFLPRIIKAAPSCAIMISTYE [SLC25A39], the protein stability index is 2.8 ± 0.31 (treatment: DMSO) and 3.21 ± 0.75 (treatment: MLN4924 1 uM, 8 h).
For LFQTHENREHLVMMEKILGPIPSH [CLK3] the same measures were 2.85 ± 0.3 and 3.1 ± 0.15.
With LGPESWQQIAMDPEEVKSLDSNGA [BCL2L13], the protein stability index reads like this: (treatment: DMSO) 5.16 ± 0.16; (treatment: MLN4924 1 uM, 8 h) 5.24 ± 0.21.
Consider LGPSGLQNHGQHLILSREASWAKP [LCOR], for which the protein stability index turned out to be 3.08 ± 0.19 (treatment: DMSO) and 3.18 ± 0.2 (treatment: MLN4924 1 uM, 8 h).
On the same counts, the results for LGPSRDPDPLNICVFILLLVFIVV [RTP4] are 3.8 ± 0.48 and 2.77 ± 0.41.
On the same counts, the results for LGRELMLQLSEFLCEEFRNRNQRI [CPN1] are 2.31 ± 0.2 and 2.26 ± 0.26.
On the same counts, the results for LGVVYRSLSFEDELVYADDYIMDE [ESRRG] are 2.46 ± 0.04 and 2.67 ± 0.33.
Take LICAISHTHRAHTVVPLDDATQEY [TRIM39]: the protein stability index reads like this: (treatment: DMSO) 2.59 ± 0.19; (treatment: MLN4924 1 uM, 8 h) 2.51 ± 0.38.
In turn, LIGDFSKGYLFHTVAGKHQDLKYI [CDC25A] returned a protein stability index (treatment: DMSO) of 2.02 ± 0.32 and a protein stability index (treatment: MLN4924 1 uM, 8 h) of 1.81 ± 0.43.
For LIKSGAHFDATNLHKQTASDLLDE [FEM1C] the same measures were 4.61 ± 0.36 and 4.53 ± 0.51.
For LITQQIIPVLYCMVFIAGILLNGV [P2RY14] the same measures were 3.37 ± 0.2 and 3.42 ± 0.44.
On the same counts, the results for LIWVVGPVLAVVFIICIVIAILLY [PTPRD] are 2.35 ± 0.21 and 2.15 ± 0.29.
For LKGVKQACCEFLESQLDPSNCLGI [KLHL12], the protein stability index reads like this: (treatment: DMSO) 2.66 ± 0.66; (treatment: MLN4924 1 uM, 8 h) 2.51 ± 0.29.
For LKKFLYNFDNPWNFQNIPKETELP [MIA2] the same measures were 3.061 ± 0.006 and 2.66 ± 0.41.
As for LKTGNSSPGIGAVYLANQAKNQSD [RTP4], the protein stability index runs as follows: (treatment: DMSO) 3.82 ± 0.14; (treatment: MLN4924 1 uM, 8 h) 3.97 ± 0.19.
For LLGEPLAGPELDEMLREVDLNGDG [CABP4] the same measures were 5.18 ± 0.21 and 5.36 ± 0.21.
For LLLAYNSSARIPKCPWMEGGEMSP [INTS4] the same measures were 2.27 ± 0.32 and 2.17 ± 0.14.
On to LLLFLVFVIVLFFIYHFMQAEEGN [EMD], for which the protein stability index (treatment: DMSO) was 2.23 ± 0.15 and the protein stability index (treatment: MLN4924 1 uM, 8 h) amounted to 2.42 ± 0.15.
For LLLSHIHASSYISPEKEEQYIAQF [PRAME] the same measures were 2.42 ± 0.54 and 2.37 ± 0.4.
As for LLNLVDHTEVVRDLTFAPDGSLIL [WSB1], the protein stability index runs as follows: (treatment: DMSO) 2.24 ± 0.13; (treatment: MLN4924 1 uM, 8 h) 2.16 ± 0.16.
For LLNPNLKDTVICAMKITQEPQGLG [SPACA3] the same measures were 2.4 ± 0.4 and 2.51 ± 0.21.
For LLPKSRENYLNRCMDQERLRREST [FCHO1] the same measures were 3.31 ± 0.17 and 3.21 ± 0.16.
On the same counts, the results for LLRTFDAGEFTGWEKVGSGGFGQV [RIPK4] are 2.43 ± 0.56 and 2.53 ± 0.094.
Regarding LLTIGDANGEIQRHAEQQALRLEV [CARM1], the protein stability index (treatment: DMSO) was determined as 3.53 ± 0.27 and the protein stability index (treatment: MLN4924 1 uM, 8 h) worked out at 3.71 ± 0.11.
For LLTTSGIQFKKHEEEGIETQYFAE [CNOT7] the same measures were 4.13 ± 0.13 and 4.19 ± 0.11.
For LLYTSLPDFCHKFLPGYVGGIQEG [DHCR7] the same measures were 2.58 ± 0.58 and 2.71 ± 0.63.
LMADLVADISEAEQRTIQAQKESL [APBB1IP]: the protein stability index runs as follows: (treatment: DMSO) 3.5 ± 0.56; (treatment: MLN4924 1 uM, 8 h) 3.6 ± 0.45.
Regarding LMAGCIQEARERWNFDFVTETPLE [CDKN1A], the protein stability index runs as follows: (treatment: DMSO) 2.84 ± 0.67; (treatment: MLN4924 1 uM, 8 h) 2.92 ± 0.33.
For the sequence LMVGPNFRVGKKIGCGNFGELRLG [CSNK1G3], the protein stability index runs as follows: (treatment: DMSO) 1.9 ± 0.23; (treatment: MLN4924 1 uM, 8 h) 2.58 ± 0.59.
For LPAGPLPAPLLVLCPSRAELDRWL [PLEKHN1] the same measures were 2.81 ± 0.16 and 2.6 ± 0.22.
For the sequence LPCFNGRVVSWLVSAEGSHPDPAP [DVL3], the protein stability index reads like this: (treatment: DMSO) 2.64 ± 0.24; (treatment: MLN4924 1 uM, 8 h) 2.53 ± 0.28.
For LPDPREACGSSSYVASIVDGGESR [RBMY1A1] the same measures were 4.74 ± 0.24 and 4.64 ± 0.14.
For LPELFHKIGVGAMTWSPLACGIVS [KCNAB2] the same measures were 2.74 ± 0.42 and 2.84 ± 0.46.
Take LPELKANPFKERICRVFSTSPAKD [CIB1]: the protein stability index runs as follows: (treatment: DMSO) 3.46 ± 0.08; (treatment: MLN4924 1 uM, 8 h) 3.58 ± 0.2.
On the same counts, the results for LPGACNIPANVSNCNWFCEGSFNG [KRT33B] are 2.33 ± 0.27 and 2.36 ± 0.22.
